In patent US20140308201A1 (Novartis, published 2014):

Assays:
complement factor Clq = biological target: T1, complement factor Clq (UniProt P02745 23-245; P02746 28-253; P02747 29-245); assay: ELISA, antibody coated in serial dilution, constant C1q; inferred from about 50% coating
T1 construct: bought (Sigma C1740); also called C1q; Complement component Clq (Sigma C1740)
Method: In additional studies, the ability of the unconjugated anti-FGFR2 antibodies to bind the complement factor Clq was evaluated. […] In order to monitor the amount of bound antibody analyte on the microtiterplate, this procedure was performed twice per plate utilizing the second dilution (in triplicate) for determining the coating efficacy of the analyte to the plate.

[1] = biological target: T2, Cynomolgus monkey FGFR2 IIIb D1-3 (cynomolgus monkey); assay: SPR Biacore, IgG captured via anti-human Fc, soluble FGFR as analyte
T2 construct: also called Cyno FGFR2 IIIb
T2 chain: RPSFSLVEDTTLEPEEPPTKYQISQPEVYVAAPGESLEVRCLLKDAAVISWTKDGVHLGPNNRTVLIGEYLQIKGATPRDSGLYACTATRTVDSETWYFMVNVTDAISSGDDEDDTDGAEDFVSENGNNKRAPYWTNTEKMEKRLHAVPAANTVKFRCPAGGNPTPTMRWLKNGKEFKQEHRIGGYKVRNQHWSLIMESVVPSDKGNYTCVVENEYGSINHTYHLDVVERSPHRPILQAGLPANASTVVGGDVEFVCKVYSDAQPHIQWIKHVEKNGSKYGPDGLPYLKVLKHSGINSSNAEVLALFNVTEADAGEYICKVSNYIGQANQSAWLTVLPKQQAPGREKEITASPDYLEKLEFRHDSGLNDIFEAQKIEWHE
Method: (§1) Affinity of the antibodies to FGFR2 species orthologues was determined using Biacore technology using a Biacore T100 instrument (GE Systems) and with CM5 sensor chips.
(§2) For kinetic measurements, experiments were performed in which the antibodies were immobilized to the sensor chip surface and the ability of the FGFR proteins described above listed in Table 1 to bind in free solution was determined Briefly, 50 μg/ml of anti-human Fc antibody at pH 4.75 was immobilized on a CM5 sensor chip through amine coupling at flow rate of 10 μl/minute on all four flow cells to reach 6000 RUs. […] Subsequently, 0.078-100 nM of FGFR receptors, diluted in a 2-fold series, were injected at a flow rate of 80 μl/min for 7 min over both reference and test flow cells. Dissociation of the binding was followed for 10 min using HBS-EP⁺ supplemented with 0.5 mg/ml of BSA and 10 μg/ml heparin as running buffer. After each injection cycle, the chip surface was regenerated with 10 mM glycine, pH 2.0 at 60 μl/min for 70 s.

Human FGFR2 IIIb D1-3 [2] = biological target: T3, Human FGFR2 IIIb D1-3 (human); assay: as above
T3 construct: Extracellular domains D1-3 with C-terminal tag, made in HEK293T; also called recombinant human FGFR2 IIIb; hFGFR2
T3 chain: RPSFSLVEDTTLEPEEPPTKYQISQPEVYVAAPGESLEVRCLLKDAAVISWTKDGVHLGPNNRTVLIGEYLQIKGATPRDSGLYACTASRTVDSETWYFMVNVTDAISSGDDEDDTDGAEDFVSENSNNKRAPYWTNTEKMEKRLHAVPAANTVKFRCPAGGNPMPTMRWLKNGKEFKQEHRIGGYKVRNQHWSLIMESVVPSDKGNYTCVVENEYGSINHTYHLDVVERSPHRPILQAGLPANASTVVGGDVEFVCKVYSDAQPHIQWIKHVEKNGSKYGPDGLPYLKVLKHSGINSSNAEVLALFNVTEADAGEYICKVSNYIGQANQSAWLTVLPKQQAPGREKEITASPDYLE
Method: as §1, §2

[3] = biological target: T2, Cynomolgus monkey FGFR2 IIIb D1-3; assay: SPR Biacore, method as Example 2
Method: as §2

Human FGFR2 IIIb D1-3 [4] = biological target: T3, Human FGFR2 IIIb D1-3; assay: SPR Biacore, method as Example 2
Method: as §2

FGFR2 D2-D3 Construct = biological target: T4, FGFR2 D2-D3 Construct (human); assay: HDx-MS, antigen incubated 30 min with antibody
T4 construct: E. coli made, not glycosylated; also called E. Coli. derived FGFR2D2-D3 protein
T4 chain: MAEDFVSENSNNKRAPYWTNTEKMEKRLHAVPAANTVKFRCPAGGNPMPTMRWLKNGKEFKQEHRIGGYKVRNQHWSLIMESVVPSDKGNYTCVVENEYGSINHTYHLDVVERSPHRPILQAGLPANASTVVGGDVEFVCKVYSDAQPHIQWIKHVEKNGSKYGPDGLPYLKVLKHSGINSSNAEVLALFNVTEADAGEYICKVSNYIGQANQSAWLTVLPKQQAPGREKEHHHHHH
Method: The epitope mapping experiments described in this example were performed on a Waters HDx-MS platform, which includes a LEAP autosampler, nanoACQUITY UPLC System, and Synapt G2 mass spectrometer. The studies were automated by a LEAP autosampler operated by the LeapShell software, which performed initiation of the deuterium exchange reaction, reaction time control, quench reaction, injection onto the UPLC system and digestion time control. The Leap autosampler was equipped with two temperature controlled stacks maintained at 25° C. for HDx reaction and maintained at 2° C. for storage of protein and quench solution, respectively. Triplicate control experiments were carried out on antigen at a deuterium exchange time of 25 minutes. HDX was quenched with quenching buffer (6 M urea and 1 M TCEP pH=2.5). […] Triplicate experiments were carried out on antigen-mAb complex just as the control experiments except in these experiments the antigen in incubated for 30 min with the antibody at 25° C. prior to deuterium exchange.

Human FGFR2 IIIb D1-3 [5] = biological target: T3, Human FGFR2 IIIb D1-3; assay: SPR Biacore, method as Example 2
Method: as §2

Human FGFR2 IIIb D1-3 [6] = biological target: T3, Human FGFR2 IIIb D1-3; assay: SPR Biacore, method as Example 2
Mouse FGFR2 IIIb D1-3 = biological target: T5, Mouse FGFR2 IIIb D1-3 (mouse); assay: SPR Biacore, IgG captured via anti-human Fc, soluble FGFR as analyte
T5 chain: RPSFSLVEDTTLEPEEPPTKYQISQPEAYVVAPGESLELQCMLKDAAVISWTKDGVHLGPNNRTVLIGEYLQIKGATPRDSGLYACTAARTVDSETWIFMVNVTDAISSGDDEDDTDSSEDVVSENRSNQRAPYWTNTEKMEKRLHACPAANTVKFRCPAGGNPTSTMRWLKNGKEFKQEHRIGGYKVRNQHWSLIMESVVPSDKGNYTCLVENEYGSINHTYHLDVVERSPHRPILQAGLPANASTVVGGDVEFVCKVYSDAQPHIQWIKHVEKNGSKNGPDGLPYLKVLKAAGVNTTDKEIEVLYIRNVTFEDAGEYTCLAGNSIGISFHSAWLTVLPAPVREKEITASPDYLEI
Method: as §1, §2

Rat FGFR2 IIIb D1-3 = biological target: T6, Rat FGFR2 IIIb D1-3 (rat); assay: as above
T6 chain: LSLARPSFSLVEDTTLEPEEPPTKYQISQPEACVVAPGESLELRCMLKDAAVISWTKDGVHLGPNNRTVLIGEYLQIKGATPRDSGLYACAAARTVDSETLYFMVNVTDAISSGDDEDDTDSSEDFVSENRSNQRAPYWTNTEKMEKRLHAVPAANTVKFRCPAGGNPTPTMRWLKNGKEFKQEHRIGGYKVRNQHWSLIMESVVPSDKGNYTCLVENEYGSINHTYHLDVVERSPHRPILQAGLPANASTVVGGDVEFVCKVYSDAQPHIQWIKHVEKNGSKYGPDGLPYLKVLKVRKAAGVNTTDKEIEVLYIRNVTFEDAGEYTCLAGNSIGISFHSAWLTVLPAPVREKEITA
Method: as §1, §2

Human FGFR2 IIIb D1-3 [7] = biological target: T3, Human FGFR2 IIIb D1-3; assay: SPR Biacore, similar assay conditions
Human FGFR4 ECD = biological target: T7, Human FGFR4 ECD (human, UniProt P22455 22-369); assay: screening of panning outputs for specificity and cross-reactivity (assays of Example 1)
T7 construct: Extracellular domain with C-terminal tag

Human FGFR2 IIIb D1-3 [8] = biological target: T3, Human FGFR2 IIIb D1-3; assay: SET or Biacore, IgG

T1 sequence (P02745 23-245 limits assumed, chain 1 of 3): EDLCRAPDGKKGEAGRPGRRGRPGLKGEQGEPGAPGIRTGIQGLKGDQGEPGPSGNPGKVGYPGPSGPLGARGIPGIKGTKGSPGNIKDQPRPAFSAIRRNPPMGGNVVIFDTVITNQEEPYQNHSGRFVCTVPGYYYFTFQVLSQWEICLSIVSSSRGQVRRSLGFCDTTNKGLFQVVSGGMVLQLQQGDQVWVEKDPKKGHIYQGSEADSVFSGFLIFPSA
T1 sequence (P02746 28-253 limits assumed, chain 2 of 3): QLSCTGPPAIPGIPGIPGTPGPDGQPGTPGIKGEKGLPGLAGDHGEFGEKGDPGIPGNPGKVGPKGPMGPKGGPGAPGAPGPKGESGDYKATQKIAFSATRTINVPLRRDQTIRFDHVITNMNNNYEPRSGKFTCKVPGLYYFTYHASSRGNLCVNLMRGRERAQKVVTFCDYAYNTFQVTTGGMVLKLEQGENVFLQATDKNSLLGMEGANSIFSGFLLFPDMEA
T1 sequence (P02747 29-245 limits assumed, chain 3 of 3): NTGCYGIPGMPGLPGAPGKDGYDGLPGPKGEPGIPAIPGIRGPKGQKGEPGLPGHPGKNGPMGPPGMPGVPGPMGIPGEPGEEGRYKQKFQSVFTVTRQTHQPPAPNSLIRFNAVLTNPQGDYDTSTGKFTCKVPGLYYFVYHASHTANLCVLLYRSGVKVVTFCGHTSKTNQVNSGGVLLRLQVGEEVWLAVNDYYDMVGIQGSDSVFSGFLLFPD

B1: mAb10164 (antibody, human IgG1, lambda, V domains shown)
VH: QVQLVESGGGLVKPGGSLRLSCAASGFTFSSYALSWVRQAPGKGLEWVGRIRSKIDGGTTDYAAPVKGRFTISRDDSKNTLYLQMNSLKTEDTAVYYCARDRSPSDSSAFAIWGQGTLVTVSS
VL: DIELTQPPSVSVSPGQTASITCSGDNLGSQYVDWYQQKPGQAPVLVIYDDNDRPSGIPERFSGSNSGNTATLTISGTQAEDEADYYCQSWDSLSVVFGGGTKLTVLG
notes: HuCAL human IgG1
- C1q binding capacity against the other antibodies (complement factor Clq): ~2 fold
- Kd [1]: 16 nM
- Kd (Human FGFR2 IIIb D1-3 [2]): 19 nM
- Kd [3]: 9 nM
- Kd (Human FGFR2 IIIb D1-3 [4]): 2 nM
- binding result (FGFR2 D2-D3 Construct): binds
- Kd (Human FGFR2 IIIb D1-3 [5]): 2 nM

B2: mAb20437 (antibody, human IgG1, lambda, V domains shown)
VH: EVQLVESGGGLVKPGGSLRLSCAASGFTFSSYALSWVRQAPGKGLEWVGRIRSRIEGGTTDYAAPVRGRFTISRDDSKNTLYLQMNSLKTEDTAVYYCARDRSPSDSSAFAIWGQGTLVTVSS
VL: SYELTQPLSVSVALGQTARITCSGDNLGSQYVDWYQQKPGQAPVLVIYDDNDRPSGIPERFSGSNSGNTATLTISRAQAGDEADYYCQSWDSLSVVFGGGTKLTVLG
notes: human IgG1
- Kd (Human FGFR2 IIIb D1-3 [6]): 3.1 nM

B3: mAb11725 (antibody, human IgG1, lambda, V domains shown)
VH: QVQLLESGGGLVQPGGSLRLSCAASGFTFNTYWLHWVRQAPGKGLEWVSVISSDSSSTYYADSVKGRFTISRDNSKNTLYLQMNSLRAEDTAVYYCARDSRLDYWGQGTLVTVSS
VL: DIELTQPPSVSVSPGQTASITCSGDSIGDTYVDWYQQKPGQAPVLVIYDDIDRPSGIPERFSGSNSGNTATLTISGTQAEDEADYYCYVYAWTGTSNVFGGGTKLTVLG
notes: HuCAL human IgG1
- Kd [1]: 7.3 nM
- Kd (Human FGFR2 IIIb D1-3 [2]): 26 nM
- Kd (Mouse FGFR2 IIIb D1-3): 130 nM
- Kd (Rat FGFR2 IIIb D1-3): 140 nM
- Kd (Human FGFR2 IIIb D1-3 [5]): 3.3 nM

B4: mAb20562 (antibody, human IgG1, kappa, V domains shown)
VH: EVQLLESGGGLVQPGGSLRLSCAASGFTFSDYAMSWVRQAPGKGLEWVSVIEGDASYTHYADSVRGRFTISRDNSKNTLYLQMNSLRAEDTAVYYCARERTYSSAFDYWGQGTLVTVSS
VL: DIQMTQSPSSLSASVGDRVTITCRASQDISSDLNWYQQKPGKAPKLLIYDASNLQSGVPSRFSGSGSGTDFTLTISSLQPEDFATYYCQQHYSPSHTFGQGTKVEIKR
notes: human IgG1
- Kd (Human FGFR2 IIIb D1-3 [7]): 9 nM

B5: mAb12439 (antibody, human IgG1, kappa, V domains shown)
VH: QVQLVQSGAEVKKPGASVKVSCKASGYTFTSYDISWVRQAPGQGLEWMGWINPYNGGTNYAQKFQGRVTMTRDTSISTAYMELSRLRSEDTAVYYCAREGSGMIVYPGWSYAFDYWGQGTLVTVSS
VL: DIQMTQSPSSLSASVGDRVTITCRASQDISNDLGWYQQKPGKAPKLLIYAASSLQSGVPSRFSGSGSGTDFTLTISSLQPEDFATYYCQQHYHTPNTFGQGTKVEIKR
notes: HuCAL human IgG1
- binding result (Human FGFR4 ECD): binds
- Kd [1]: 5.6 nM
- Kd (Human FGFR2 IIIb D1-3 [2]): 15 nM
- Kd (Mouse FGFR2 IIIb D1-3): 15 nM
- Kd (Rat FGFR2 IIIb D1-3): 16 nM
- Kd (Human FGFR2 IIIb D1-3 [5]): 15 nM

B6: mAb12947 (antibody, human IgG1, kappa, V domains shown)
VH: QVQLVQSGAEVKKPGSSVKVSCKASGGTFSSYAISWVRQAPGQGLEWMGSIQPTAGPARYAQKFQGRVTITADESTSTAYMELSSLRSEDTAVYYCARASLYSVATGSYWKVYHPFDSWGQGTLVTVSS
VL: DIQMTQSPSSLSASVGDRVTITCRASQDIYSYLAWYQQKPGKAPKLLIYDASSLQSGVPSRFSGSGSGTDFTLTISSLQPEDFATYYCQQADQYPVTFGQGTKVEIKR
notes: HuCAL human IgG1
- Kd [1]: 2.4 nM
- Kd (Human FGFR2 IIIb D1-3 [2]): 2.7 nM
- Kd (Mouse FGFR2 IIIb D1-3): 3.1 nM
- Kd (Rat FGFR2 IIIb D1-3): 5.1 nM
- Kd (Human FGFR2 IIIb D1-3 [5]): 2.7 nM

B7: mAb20811 (antibody, human IgG1, kappa, V domains shown)
VH: QVQLLESGGGLVQPGGSLRLSCAASGFTFSDYAMSWVRQAPGKGLEWVSTIEGDSNYIEYADSVKGRFTISRDNSKNTLYLQMNSLRAEDTAVYYCARERTYSSAFDYWGQGTLVTVSS
VL: DIQMTQSPSSLSASVGDRVTITCRASQDISSDLNWYQQKPGKAPKLLIYDASNLQSGVPSRFSGSGSGTDFTLTISSLQPEDFATYYCHQWYSTLYTFGQGTKVEIKR
notes: IgG
- Kd (Human FGFR2 IIIb D1-3 [8]): 0.11 nM

B8: mAb12422 (antibody, human IgG1, kappa, V domains shown)
VH: QVQLVQSGAEVKKPGSSVKVSCKASGGTFSSYAISWVRQAPGQGLEWMGYISPYMGETHYAQKFQGRVTITADESTSTAYMELSSLRSEDTAVYYCARESYEYFDIWGQGTLVTVSS
VL: DIQMTQSPSSLSASVGDRVTITCRASQSISNDLAWYQQKPGKAPKLLIYATSILQSGVPSRFSGSGSGTDFTLTISSLQPEDFATYYCLQYYDYSYTFGQGTKVEIKR
notes: HuCAL human IgG1
- binding result (Human FGFR4 ECD): binds
- Kd [1]: 7.4 nM
- Kd (Human FGFR2 IIIb D1-3 [2]): 5.1 nM
- Kd (Mouse FGFR2 IIIb D1-3): 7.7 nM
- Kd (Rat FGFR2 IIIb D1-3): 9.7 nM
- Kd (Human FGFR2 IIIb D1-3 [5]): 5.1 nM
